Where a chain is given by its changes, count along the chain named. Some results are limits rather than exact numbers.

For test [1], the target named is T1, human C-KIT-Fc (human, UniProt P10721 26-524).
T1 construct: also called biotinylated human C-KIT-Fc; not shown: Fc part not described
Briefly: direct ELISA at 1 µg/ml. On the technique in general: In an ELISA, binding on a coated surface is turned into a signal by an enzyme label.

Test [2] has as its target T2, cynomolgus monkey C-KIT-Fc (cynomolgus monkey).
T2 construct: also called cyno C-KIT-Fc
Briefly: direct ELISA at 1 µg/ml.

In test [3] the target is T1, human C-KIT-Fc. Briefly: HTRF competition vs Tb-h37M IgG1.
For test [4], the target named is T2, cynomolgus monkey C-KIT-Fc. Briefly: HTRF competition vs Tb-h37M IgG1.
The target in another test is T3, hLTBR-Fc (human, UniProt P36941).
T3 construct: Fc fusion; member of the panel m9
T3 sequence (P36941 28-227 limits assumed): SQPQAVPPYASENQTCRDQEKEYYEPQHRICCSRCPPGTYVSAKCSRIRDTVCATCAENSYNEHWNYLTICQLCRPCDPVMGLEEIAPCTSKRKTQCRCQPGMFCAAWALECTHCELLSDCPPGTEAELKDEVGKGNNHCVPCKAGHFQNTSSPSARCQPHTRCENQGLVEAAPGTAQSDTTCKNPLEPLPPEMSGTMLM
Briefly: direct ELISA on coated protein, IgG1.

For a further test, the target named is T4, hDR6-Fc (human, UniProt O75509).
T4 construct: Fc fusion; member of the panel m9
T4 sequence (looked up): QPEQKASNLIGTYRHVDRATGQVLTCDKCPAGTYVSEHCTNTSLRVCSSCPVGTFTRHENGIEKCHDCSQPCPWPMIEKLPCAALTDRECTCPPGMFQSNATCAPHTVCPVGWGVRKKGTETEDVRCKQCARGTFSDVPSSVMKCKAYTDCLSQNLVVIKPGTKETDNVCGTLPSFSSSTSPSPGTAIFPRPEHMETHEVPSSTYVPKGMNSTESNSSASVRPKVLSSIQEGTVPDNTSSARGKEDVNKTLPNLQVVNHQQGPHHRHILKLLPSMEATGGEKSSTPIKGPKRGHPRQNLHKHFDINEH
Briefly: direct ELISA on coated protein, IgG1.

In another test the target is T5, hVCAM-1 (human, UniProt P19320).
T5 construct: purified recombinant protein; member of the panel m9
T5 sequence (looked up): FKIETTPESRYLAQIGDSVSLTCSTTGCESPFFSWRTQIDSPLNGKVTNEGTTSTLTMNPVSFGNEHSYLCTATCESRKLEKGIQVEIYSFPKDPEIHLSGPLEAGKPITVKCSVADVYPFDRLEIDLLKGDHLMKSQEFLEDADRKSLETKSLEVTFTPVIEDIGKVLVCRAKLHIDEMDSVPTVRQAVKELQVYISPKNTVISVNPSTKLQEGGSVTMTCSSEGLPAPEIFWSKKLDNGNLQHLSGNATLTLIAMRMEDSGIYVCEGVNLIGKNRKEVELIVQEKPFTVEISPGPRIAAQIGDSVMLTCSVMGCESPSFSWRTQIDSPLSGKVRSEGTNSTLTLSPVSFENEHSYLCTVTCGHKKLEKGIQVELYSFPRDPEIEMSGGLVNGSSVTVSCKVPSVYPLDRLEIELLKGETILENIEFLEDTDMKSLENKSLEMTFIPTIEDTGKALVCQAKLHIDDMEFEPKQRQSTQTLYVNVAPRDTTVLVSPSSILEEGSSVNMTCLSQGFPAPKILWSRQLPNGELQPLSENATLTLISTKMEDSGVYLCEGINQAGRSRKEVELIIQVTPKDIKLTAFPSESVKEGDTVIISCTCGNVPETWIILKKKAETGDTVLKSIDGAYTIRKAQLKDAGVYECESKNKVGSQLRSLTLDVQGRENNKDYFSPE
Briefly: direct ELISA on coated protein, IgG1.

A further test addresses T6, hEpCAM-Fc (human, UniProt P16422).
T6 construct: Fc fusion; member of the panel m9
T6 sequence (looked up): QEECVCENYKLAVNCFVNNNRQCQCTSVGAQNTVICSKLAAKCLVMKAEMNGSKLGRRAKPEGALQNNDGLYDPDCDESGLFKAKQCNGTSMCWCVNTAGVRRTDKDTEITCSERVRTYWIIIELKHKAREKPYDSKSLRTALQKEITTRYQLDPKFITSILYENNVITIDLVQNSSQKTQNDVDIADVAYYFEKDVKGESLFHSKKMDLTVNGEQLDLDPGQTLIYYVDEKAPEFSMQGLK
Briefly: direct ELISA on coated protein, IgG1.

The target of another test is T7, hDR3-Fc (human, UniProt Q93038).
T7 construct: Fc fusion; member of the panel m9
T7 sequence (looked up): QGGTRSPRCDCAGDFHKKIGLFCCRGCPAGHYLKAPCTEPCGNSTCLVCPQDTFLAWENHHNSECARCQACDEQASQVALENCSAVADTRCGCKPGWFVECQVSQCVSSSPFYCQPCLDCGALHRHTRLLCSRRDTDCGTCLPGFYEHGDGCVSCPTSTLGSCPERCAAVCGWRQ
Briefly: direct ELISA on coated protein, IgG1.

A further test addresses T8, hCMET-Fc (The natural ectodomain is cleaved by furin after residue 307 into disulfide-linked alpha and beta chains. It is given here as one continuous stretch.).
T8 construct: member of the panel m9
T8 chain: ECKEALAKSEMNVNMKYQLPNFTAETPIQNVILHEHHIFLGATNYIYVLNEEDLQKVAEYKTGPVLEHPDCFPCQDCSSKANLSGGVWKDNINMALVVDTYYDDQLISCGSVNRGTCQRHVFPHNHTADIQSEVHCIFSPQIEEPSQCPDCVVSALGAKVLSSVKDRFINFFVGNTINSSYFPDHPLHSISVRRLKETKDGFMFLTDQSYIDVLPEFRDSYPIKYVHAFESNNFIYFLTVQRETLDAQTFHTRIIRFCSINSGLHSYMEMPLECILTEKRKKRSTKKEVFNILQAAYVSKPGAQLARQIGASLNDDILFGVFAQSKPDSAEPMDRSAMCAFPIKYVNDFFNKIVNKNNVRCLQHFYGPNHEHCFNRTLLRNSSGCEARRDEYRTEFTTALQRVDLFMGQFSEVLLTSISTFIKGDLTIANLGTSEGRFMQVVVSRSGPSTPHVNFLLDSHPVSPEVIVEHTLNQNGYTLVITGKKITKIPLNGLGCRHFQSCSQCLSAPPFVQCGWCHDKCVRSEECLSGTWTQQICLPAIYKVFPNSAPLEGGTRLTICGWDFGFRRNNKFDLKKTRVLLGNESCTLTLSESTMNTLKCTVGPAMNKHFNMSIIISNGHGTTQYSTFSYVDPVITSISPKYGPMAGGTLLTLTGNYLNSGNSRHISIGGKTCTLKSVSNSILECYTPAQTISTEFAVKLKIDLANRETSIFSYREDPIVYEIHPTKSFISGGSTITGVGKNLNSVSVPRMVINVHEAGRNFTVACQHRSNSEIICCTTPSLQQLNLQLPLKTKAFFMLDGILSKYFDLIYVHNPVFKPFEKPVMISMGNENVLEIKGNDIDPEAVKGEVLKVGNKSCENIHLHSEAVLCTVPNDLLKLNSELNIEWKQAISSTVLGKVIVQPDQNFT
Briefly: direct ELISA on coated protein, IgG1.

The next test deals with T9, h4-1BB-Fc.
T9 construct: member of the panel m9
T9 sequence (chain, as listed by the source limits assumed): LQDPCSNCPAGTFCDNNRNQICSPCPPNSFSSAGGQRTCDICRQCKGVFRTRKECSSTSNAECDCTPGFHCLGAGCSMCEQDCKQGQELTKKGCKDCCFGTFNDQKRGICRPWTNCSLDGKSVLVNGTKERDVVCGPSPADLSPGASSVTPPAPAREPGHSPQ
Briefly: direct ELISA on coated protein, IgG1.

The target of another test is T10, hBAFFR-Fc (human, UniProt Q96RJ3).
T10 construct: Fc fusion; member of the panel m9
T10 sequence (Q96RJ3 7-71 limits assumed): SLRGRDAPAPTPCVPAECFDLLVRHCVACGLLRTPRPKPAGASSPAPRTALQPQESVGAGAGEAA
Briefly: direct ELISA on coated protein, IgG1.

The target of a further test is T11, hVCAM-Fc.
T11 construct: member of the panel m9
T11 chain: T5 sequence (looked up)
Briefly: direct ELISA on coated protein, IgG1.

A further test addresses T12, hCD4 (human, UniProt P01730).
T12 construct: purified recombinant protein; member of the panel m9
Briefly: direct ELISA on coated protein, IgG1.

A further test has as its target T13, hTWEAK-Fc (human, UniProt O43508).
T13 construct: Fc fusion; member of the panel m9
T13 sequence (looked up): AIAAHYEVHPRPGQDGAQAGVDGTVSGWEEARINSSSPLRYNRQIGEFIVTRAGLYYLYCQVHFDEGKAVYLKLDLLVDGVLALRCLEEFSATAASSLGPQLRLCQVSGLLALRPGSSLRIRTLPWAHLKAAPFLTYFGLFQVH
Briefly: direct ELISA on coated protein, IgG1.

The next test deals with T14, hOX40-Fc.
T14 construct: member of the panel m9
T14 chain: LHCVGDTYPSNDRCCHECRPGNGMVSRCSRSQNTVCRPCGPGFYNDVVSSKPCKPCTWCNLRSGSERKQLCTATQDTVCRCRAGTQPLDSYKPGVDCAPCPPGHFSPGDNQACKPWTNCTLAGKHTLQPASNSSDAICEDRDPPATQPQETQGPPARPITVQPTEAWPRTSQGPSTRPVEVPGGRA
Briefly: direct ELISA on coated protein, IgG1.

Another test addresses T15, hICAM-1-Fc (human, UniProt P05362).
T15 construct: Fc fusion; member of the panel m9
Briefly: direct ELISA on coated protein, IgG1.

Test [5] has as its target T16, human C-KIT, full length, on cells (human, UniProt P10721 26-976).
T16 construct: full-length cDNA stably transfected in CHO-K1; also used here for endogenous C-KIT of TF-1 cells; also called human C-KIT+ CHO-K1 cells; C-KIT on TF-1 cells
Briefly: flow cytometry, CHO-K1 transfectants.

Test [6] addresses T1, human C-KIT-Fc. Briefly: direct titration ELISA on coated C-KIT-Fc, IgG1 format.

T15 sequence (P05362 28-480 limits assumed): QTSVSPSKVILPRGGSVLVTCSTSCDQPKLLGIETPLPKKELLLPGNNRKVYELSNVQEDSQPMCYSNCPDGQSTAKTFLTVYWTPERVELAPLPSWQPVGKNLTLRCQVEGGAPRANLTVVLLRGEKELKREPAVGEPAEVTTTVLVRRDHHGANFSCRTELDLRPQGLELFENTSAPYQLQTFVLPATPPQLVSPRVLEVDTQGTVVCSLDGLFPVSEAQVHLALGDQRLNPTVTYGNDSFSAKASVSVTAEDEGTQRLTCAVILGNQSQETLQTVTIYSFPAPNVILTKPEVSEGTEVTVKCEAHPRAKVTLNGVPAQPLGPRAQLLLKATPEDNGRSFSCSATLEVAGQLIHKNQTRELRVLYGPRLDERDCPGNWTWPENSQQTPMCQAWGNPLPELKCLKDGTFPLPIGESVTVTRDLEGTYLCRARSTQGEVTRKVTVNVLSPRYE

B1: E-C7 (antibody, IgG1, V domains shown)
VH: QVQLVQSGAEVKKPGASVKVSCKASGYTFTDYYMNWVRQAPGQGLEWMGRIYPGSGNTYYAQKFQGRVTMTRDTSTSTVYMELSSLRSEDTAVYYCARGVYYYDYWGQGTLVTVSS
VL: DIQMTQSPSSLSASVGDRVTITCRASQGIRTNLAWFQQKPGKAPKSLIYSASSLQSGVPSRFSGSGSGTDFTLTISSLQPEDFATYYCQQYNSYPRTFGGGTKVEIK
notes: IgG1; also called C-KIT-E-C7
For orientation: IC50 means the concentration at which inhibition is half-maximal. B1: the OD450 nm in the test with human C-KIT-Fc [1] is more than 1.8 OD450 nm; in test [2], more than 2 OD450 nm. Besides, the 50% inhibitory concentration (IC50) with human C-KIT-Fc [3] came to 0.028 µg/mL; in [4], 0.051 µg/mL. The binding result in the test with hLTBR-Fc, in the test with hDR6-Fc, with hVCAM-1, in the test with hEpCAM-Fc, in the test with hDR3-Fc and with hCMET-Fc was “no binding (tested: 1 µg/ml)” throughout. For the same molecule, the binding result in the test with h4-1BB-Fc, in the test with hBAFFR-Fc, with hVCAM-Fc, in the test with hCD4, with hTWEAK-Fc and with hOX40-Fc was “no binding (tested: 1 µg/ml)” each time. In addition, the binding result in the test with hICAM-1-Fc is “no binding (tested: 1 µg/ml)”.

B2: MH5.33 (antibody, IgG1, V domains shown)
VH: B1 VH with D31N, G54A, Y101W
VL: B1 VL with S50A, N92A, S93N
notes: IgG1
On to B2, for which the binding result is recorded as “binds” in [5] and “no binding (tested: 10 µg/ml)” in the test with human C-KIT-Fc [6].
